Data: paper PMC4769845, “Structures of EccB1 and EccD1 from the core complex of the mycobacterial ESX-1 type VII secretion system” (BMC Structural Biology, 2016)

B1: cytoplasmic domain of EccD1 from M. tuberculosis (cyto-EccD1mt) (domain or fragment)
chain: ATTRVTILTGRRMTDLVLPAAVPMETYIDDTVAVLSEVLEDTPADVLGGFDFTAQGVWAFARPGSPPLKLDQSLDDAGVVDGSLLTLVS
notes: also called Rv3877; not shown: His6, N-terminal, cleaved
B2: cyto-EccD1mt fused to maltose binding protein (MBP-cyto-EccD1mt) (domain or fragment)
chain: B1 chain
notes: EccD1 (Rv3877) of Mycobacterium tuberculosis H37Rv, cytoplasmic ubiquitin-like domain, residues 21-109, the same DNA fragment as in m1, placed after MBP; also called MBP fusion protein; not shown: His6, N-terminal, cleaved; MBP, N-terminal, kept

Experiments:
[1] = target: the molecule itself; assay: crystal structure; cyto-EccD1mt alone; sitting drop, 0.1 M Tris-HCl pH 8.5, 0.2 M Mg chloride, 30 % PEG4000; two molecules in the asymmetric unit; 1.88 Å
[2] = target: the molecule itself; assay: crystal structure; MBP-cyto-EccD1mt fusion, maltose-bound; sitting drop, 0.1 M HEPES pH 7.5, 1.4 M Na citrate; two molecules in the asymmetric unit; 2.20 Å

| Protein | binding result [1] | binding result [2] |
| --- | --- | --- |
| B1 | binds | – |
| B2 | – | binds |
